Series [1] has as its target T1, AtAbf43C (Acetivibrio thermocellus, UniProt A3DHB3, D302A).
T1 construct: gene Cthe_2138; residues 21-511 of 580, no signal peptide or dockerin I domain, C-terminal LEHHHHHH tag, pET28b(+), E. coli BL21(DE3) Rosetta2
Briefly: pNP release at […] nm, activity relative to wild type. The class given is biochemical. The conditions noted are these: 5 mM substrate, pH 5.5 sodium acetate, 65 °C, 10 min; catalytic residue.

Series [2] concerns the target T2, AtAbf43C (Acetivibrio thermocellus, UniProt A3DHB3, D187A).
T2 construct: gene Cthe_2138; residues 21-511 of 580, no signal peptide or dockerin I domain, C-terminal LEHHHHHH tag, pET28b(+), E. coli BL21(DE3) Rosetta2
The series is described as above. The format is biochemical. The conditions noted are these: 5 mM substrate, pH 5.5 sodium acetate, 65 °C, 10 min; catalytic residue.

Series [3] concerns the target T3, AtAbf43C (Acetivibrio thermocellus, UniProt A3DHB3, E363A).
T3 construct: gene Cthe_2138; residues 21-511 of 580, no signal peptide or dockerin I domain, C-terminal LEHHHHHH tag, pET28b(+), E. coli BL21(DE3) Rosetta2
Described as above. The format is biochemical. The settings on record: 5 mM substrate, pH 5.5 sodium acetate, 65 °C, 10 min; catalytic residue.

Substrate in the series “purified protein”: O=[N+]([O-])c1ccc(O[C@@H]2O[C@@H](CO)[C@H](O)[C@H]2O)cc1
Description: purified protein. The class given is biochemical, Acetivibrio thermocellus. The conditions noted are these: pH 5.5, 100 mM sodium acetate, 65 °C, 2 min, 0.9-36 mM substrate, full saturation not achieved.

T3 sequence (A3DHB3 entry or part of it E363A): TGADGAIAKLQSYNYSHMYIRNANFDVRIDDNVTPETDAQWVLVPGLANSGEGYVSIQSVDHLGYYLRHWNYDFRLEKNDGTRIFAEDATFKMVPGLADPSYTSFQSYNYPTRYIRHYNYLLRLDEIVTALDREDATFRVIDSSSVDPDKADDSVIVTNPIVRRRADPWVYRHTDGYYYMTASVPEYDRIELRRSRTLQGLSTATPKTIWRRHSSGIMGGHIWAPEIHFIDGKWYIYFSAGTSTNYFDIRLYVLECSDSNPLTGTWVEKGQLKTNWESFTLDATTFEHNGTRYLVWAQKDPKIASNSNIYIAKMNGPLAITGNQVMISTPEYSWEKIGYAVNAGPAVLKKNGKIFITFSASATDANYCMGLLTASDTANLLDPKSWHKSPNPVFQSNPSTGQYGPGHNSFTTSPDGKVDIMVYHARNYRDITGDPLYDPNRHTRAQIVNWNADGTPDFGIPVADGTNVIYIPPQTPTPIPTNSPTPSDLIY
T2 sequence (A3DHB3 entry or part of it D187A): as the sequence (A3DHB3 entry or part of it E363A) above, with D167A, A343E counted along it
T1 sequence (A3DHB3 entry or part of it D302A): as the sequence (A3DHB3 entry or part of it E363A) above, with D282A, A343E counted along it

As for `O=[N+]([O-])c1ccc(O[C@@H]2O[C@@H](CO)[C@H](O)[C@H]2O)cc1` [pNPAra, para-nitrophenol-α-L-arabinofuranoside], the “% activity relative to wildtype” value on AtAbf43C [1], at AtAbf43C [2] and on AtAbf43C [3] was “activity on pNPAra was completely eliminated in any of the versions” in each case.

B1: AtAbf43C_GH43 (Acetivibrio thermocellus ATCC 27405) (protein)
chain: DPDKADDSVIVTNPIVRRRADPWVYRHTDGYYYMTASVPEYDRIELRRSRTLQGLSTATPKTIWRRHSSGIMGGHIWAPEIHFIDGKWYIYFSAGTSTNYFDIRLYVLECSDSNPLTGTWVEKGQLKTNWESFTLDATTFEHNGTRYLVWAQKDPKIASNSNIYIAKMNGPLAITGNQVMISTPEYSWEKIGYAVNEGPAVLKKNGKIFITFSASATDANYCMGLLTASDTANLLDPKSWHKSPNPVFQSNPSTGQYGPGHNSFTTSPDGKVDIMVYHARNYRDITGDPLYDPNRHTRAQIVNWNADGTPDFGIPVADGTNVIYIPPQ
notes: isolated GH43 catalytic domain, residues 167-494, no CBM42, cloned in pET28b(+) and IMAC-purified, E. coli BL21(DE3) Rosetta2
On to B1, for which, in the series “purified protein”, the Km was found to be 59.6 ± 12.1 mM, the kcat stood at 238 ± 33.4 s⁻¹ and the kcat/Km was determined as 4000 ± 1000 M⁻¹ s⁻¹.

B2: AtAbf43C (Acetivibrio thermocellus ATCC 27405) (protein)
chain: TGADGAIAKLQSYNYSHMYIRNANFDVRIDDNVTPETDAQWVLVPGLANSGEGYVSIQSVDHLGYYLRHWNYDFRLEKNDGTRIFAEDATFKMVPGLADPSYTSFQSYNYPTRYIRHYNYLLRLDEIVTALDREDATFRVIDSSSVDPDKADDSVIVTNPIVRRRADPWVYRHTDGYYYMTASVPEYDRIELRRSRTLQGLSTATPKTIWRRHSSGIMGGHIWAPEIHFIDGKWYIYFSAGTSTNYFDIRLYVLECSDSNPLTGTWVEKGQLKTNWESFTLDATTFEHNGTRYLVWAQKDPKIASNSNIYIAKMNGPLAITGNQVMISTPEYSWEKIGYAVNEGPAVLKKNGKIFITFSASATDANYCMGLLTASDTANLLDPKSWHKSPNPVFQSNPSTGQYGPGHNSFTTSPDGKVDIMVYHARNYRDITGDPLYDPNRHTRAQIVNWNADGTPDFGIPVADGTNVIYIPPQTPTPIPTNSPTPSDLIY
notes: residues 21-511 of 580, no signal peptide or dockerin I domain, C-terminal LEHHHHHH tag, pET28b(+), E. coli BL21(DE3) Rosetta2
As to B2, in the series “purified protein”, the Km came to 22.7 ± 4.1 mM, the kcat turned out to be 269 ± 25.5 s⁻¹ and the kcat/Km was found to be 11900 ± 2400 M⁻¹ s⁻¹.

Broadly, the Km is the substrate concentration at which the rate is half of its maximum. Usually kcat stands for the number of substrate molecules converted per active site and unit of time at saturation. One may read the kcat/Km as the second-order rate constant that governs catalysis at low substrate concentration.
